Results reported in patent WO2011004847A1 (dated 2011).
Residue numbers refer to the chain shown, from its start. Where “and” joins values, the source holds several entries; their conditions need not be identical. Identical values can stand only once.

Target: T1, human α9 integrin molecule expressed on SW480 cells (human, UniProt Q13797 30-1035)
T1 sequence (looked up): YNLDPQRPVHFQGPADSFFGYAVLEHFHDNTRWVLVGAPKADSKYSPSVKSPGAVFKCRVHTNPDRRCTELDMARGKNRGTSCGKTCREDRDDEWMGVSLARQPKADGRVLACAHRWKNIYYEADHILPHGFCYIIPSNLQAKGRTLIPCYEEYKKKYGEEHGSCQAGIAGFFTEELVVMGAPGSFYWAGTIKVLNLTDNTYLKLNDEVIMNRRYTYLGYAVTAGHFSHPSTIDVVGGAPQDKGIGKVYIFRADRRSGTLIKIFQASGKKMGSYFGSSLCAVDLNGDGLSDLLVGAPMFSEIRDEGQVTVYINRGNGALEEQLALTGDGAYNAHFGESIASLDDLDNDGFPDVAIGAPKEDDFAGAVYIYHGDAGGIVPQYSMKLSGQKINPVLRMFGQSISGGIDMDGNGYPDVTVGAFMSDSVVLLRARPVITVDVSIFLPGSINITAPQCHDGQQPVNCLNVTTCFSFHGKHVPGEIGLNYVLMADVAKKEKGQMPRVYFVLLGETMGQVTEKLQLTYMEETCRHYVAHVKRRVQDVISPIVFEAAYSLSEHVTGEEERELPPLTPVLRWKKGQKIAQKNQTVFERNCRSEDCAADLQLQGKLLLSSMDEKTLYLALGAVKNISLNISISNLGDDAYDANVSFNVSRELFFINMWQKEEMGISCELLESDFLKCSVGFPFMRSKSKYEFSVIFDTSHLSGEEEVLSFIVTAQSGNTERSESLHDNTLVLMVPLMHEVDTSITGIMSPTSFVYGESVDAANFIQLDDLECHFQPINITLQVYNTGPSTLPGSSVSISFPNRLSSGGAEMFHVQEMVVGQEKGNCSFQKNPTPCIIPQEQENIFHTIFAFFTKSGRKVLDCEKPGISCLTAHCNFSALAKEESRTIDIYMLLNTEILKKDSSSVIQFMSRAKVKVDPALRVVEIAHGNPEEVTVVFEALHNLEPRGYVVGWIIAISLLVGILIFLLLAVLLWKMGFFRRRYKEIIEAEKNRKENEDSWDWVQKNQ
Assay: cell-based or functional assay

B1: mouse anti-human α9 integrin antibody Y9A2 (antibody, V domains shown)
VH: QVQLQQSGAELANPGASVKMSCKASGYTLTTYWMHWVKQRPGQGLEWIGYINPSSGYTEYNQKFKDKATLTADKSSSTAYMQLTSLTSEDSAVYYCAIYGDYGDFYFDYWGQGTTLTVSS
VL: SIVMTQTPKFLLVSAGDRVTMTCKASQSVNTDVAWFQQKPGQSPKLLIYFASNHYTGVPDRFTGSGYGTDFTFTISTVQAEDLAIYFCRQDYSSPFTFGGGTKLEIKR
IC50 (μg/mL), cell adhesion inhibition test: 0.07 µg/mL and 0.039 µg/mL | concentration giving significant inhibition of migration of SW480/hα9 cells toward nOPN-RAA: 50 µg/mL

B2: RY9A2v12 (W33FM34L) 012 antibody (antibody, human IgG1, kappa, V domains shown)
VH: QVQLVQSGAEVKKPGSSVKVSCKASGYTLTTYFLHWVRQAPGQGLEWMGYINPSSGYTEYNQKFQGRVTITADKSTSTAYMELSSLRSEDTAVYYCAIYGDYGDFYFDYWGQGTTVTVSS
VL: DIQMTQSPSSLSASVGDRVTITCRASQSVNTDVAWYQQKPGKAPKLLIYFASNHYTGVPSRFSGSGSGTDFTFTISSLQPEDIATYYCRQDYSSPFTFGGGTKVEIKR
cell adhesion inhibitory activity relative to mouse Y9A2 antibody: ~4 fold | concentration giving significant inhibition of migration of SW480/hα9 cells toward nOPN-RAA: 5 µg/mL

B3: RY9A2v12 (W33YM34L) 012 antibody (antibody, human IgG1, kappa, V domains shown)
VH: B2 VH with F33Y
VL: B2 VL
cell adhesion inhibitory activity relative to mouse Y9A2 antibody: ~4 fold | concentration giving significant inhibition of migration of SW480/hα9 cells toward nOPN-RAA: 5 µg/mL
